From patent publication US20250074997A1 (PERSONGEN BIOTHERAPEUTICS SUZHOU, published 2025)

B1: pcDNA3.4-SDAB20-7-26-2-3-H02-hFC (Fc fusion)
chain: QLTLVESGGGLVQPGGSLRLSCAASEFTLDYYAIGWFRQAPGKEREGVSCISSSDGSTYYADSVKGRFTISRDNAKNTVYLQMNSLKPEDTAVYYCAIGGLLLLRLWERGNYEFDYWGQGTQVTVSS
notes: Llama VHH fused in tandem with human IgG1 Fc, expressed in 293 cells, purified on protein A; not shown: human IgG1 Fc from vector pcDNA3.4-hIgG1-Fc2
B2: pcDNA3.4-SDAB20-7-26-2-1-F9-hFC (Fc fusion)
chain: QSLLVESGGGLVQPGGSLRLSCAASGFSLDYYAIGWFRQAPGKEREEVSCISSGGGSTNYADSVKGRFTISRDNAKNTVYLQMNSLKPEDTAVYYCAAKRNFMLYLVQCPYEYDYWGQGTQVTVSS
notes: also called 1-F09; not shown: human IgG1 Fc from vector pcDNA3.4-hIgG1-Fc2
B3: pcDNA3.4-SDAB20-7-26-2-3-E04-hFC (Fc fusion)
chain: QLRLVESGGGLVQPGGSLRLSCAASGFTLDYYDIGWFRQAPGKEREGVSCIGRISGDTDYAESVKGRFTASRDNAKNTVYLQMNSLKPEDTAVYYCAAERRFFGGGCRRSVDNMDSWGKGTLVTVSS
notes: as for B1
B4: phage mono clone 3-G07 (VHH)
VHH: RLQLVESGGGLVQPGGSLRLSCAVSGKALDYYSIGWFRQAPRKQREGVSCISSSGGSTNYADSVKGRFTISRDNAKDTVYLQMNSLKPEDTADYYCAVVSTVLCGLGIYEYDYWGQGTLVTVSS
notes: the phage coat fusion part is not described
B5: phage mono clone 1-B4 (VHH)
VHH: QVQLVESGGGLVQPGGSLRLSCAASGFTLDYYAIGWFRQAPGKEREGVSCISSTGGSTNYADSVKGRFTISRDNAKNTVYLQMNSLKPEDTAVYYCAADTHYLTVCYDRLGFDYWGQGTQVTVSS
notes: as for B4
B6: phage mono clone 3-E03 (VHH)
VHH: AVQLVDSGGGLVQAGGSLRLSCAASGIRLSSNAMAWYRQAPGKQRGLVALITSDGTTNYVDSVKGRFTISRDNAKNTVYLQMNSLKPEDTAVYYCKREPYLSTRGYWGQGTQVTVSS
notes: as for B4
B7: phage mono clone 3-E06 (VHH)
VHH: EVQLVESGGGLVQAGGSLTLSCVASASGSILRLNAMGWYRQAPAKQRELVALITRDGSTNYPDSVKGRFTISRDNAKNTVYLQMSSLSPEDTAVYYCYVQNHYSNYWGQGTQVTVSS
notes: as for B4
B8: phage mono clone 1-F1 (VHH)
VHH: EVQLAESGGGLVQPGGSLRLSCAASGFTFSSYTMSWVRQAPGKGLEWVSAIDSDGGVTSYADSVKGRFTISRDNAKNTLYLQMNSLKPEDTAVYYCANGGYCSGYGCYPRLLSQGTLVTVSS
notes: as for B4
B9: phage mono clone 1-H8 (VHH)
VHH: QRQLVESGGGLVQPGGSLRLSCAVSEFTLDYYAIGWFRQAPGKEREGVSCISSSGGSTVYADSVKGRFTISADNAKNTVYLQMNSLKPEDTAVYYCAAGSLLLFRLCVSRLYEYDYWGQGTQVTVSS
notes: as for B4
B10: phage mono clone 3-H02 (VHH)
VHH: B1 chain
notes: as for B4
B11: phage mono clone 1-F9 (VHH)
VHH: B2 chain
notes: the phage coat fusion part is not described; also called 1-F09
B12: phage mono clone 1-F10 (VHH)
VHH: QVQLVESGGGLVQPGGSLRLSCAASGSILSIRAVGWYRQAPGKQRELVALITSDGTTHYALSVKGRFTISRDNAKTTVYLQMNSLKPEDTAVYYCNREDYARRYWGQGTQVTVSS
notes: as for B4
B13: phage mono clone 1-H2 (VHH)
VHH: QVQLVESGGGLVQPGGSLRLSCAASGSTLDYYAIAWFRQAPGKGREGVSCISSSGGRTNYADSVKGRFTVSRDNVKNTVYLQMNSLKPEDTAVYNCAAGGDLSCYGTPTSIWQYDLWGQGTQVTVAS
notes: as for B4
B14: phage mono clone 1-G1 (VHH)
VHH: QVQLVESGGGLVQPGGSLRLSCAASGNSLRRYAIGWFRQAPGKEREGVVCISTVGGSSYYVDSVKGRFTISEDNVKNTAYLQMNSLEPEDTAVYYCAAANRLYCPAYGSAGYDYWGQGTQVTVSS
notes: as for B4
B15: phage mono clone 3-E09 (VHH)
VHH: AVQLVDSGGGLVQPGGSLRLSCAASGFTFSSYAMGWARQVPGKGLEWVSIIYRDGNTYYTDSVKGRFTISRDNAKNTVYLQMNSLKPEDTAVYYCAPVETVAARRRDYWGQGTQVNVSS
notes: as for B4
B16: phage mono clone 3-E10 (VHH)
VHH: B15 VHH
notes: as for B4
B17: phage mono clone 1-G2 (VHH)
VHH: QSQLAESGGGLVQPGGSLRLSCVASRFSLDAYAIAWFRQAPGKEREGVSCISSIGGRTNYADPVKGRFTISRDNAKNTAYLEMNSLQPEDTAVYYCAAVQRLFGPCLLSGGMDYWGKGTPVTVSS
notes: as for B4
B18: phage mono clone 3-E04 (VHH)
VHH: B3 chain
notes: as for B4

biological target: T1, UPAR-His recombinant protein (UniProt Q03405 23-303); assay: SPR (BiaCore T200), UPAR recombinant protein immobilised on CM5 chip, antibody as mobile phase
T1 construct: range 23-303; Expressed in 293 cells, purified on Ni-NTA; Biotinylated in the uPA ELISA; also called UPAR-His antigen; biotinUPAR-His; not shown: C-terminal His tag
T1 sequence (Q03405 23-303 limits assumed): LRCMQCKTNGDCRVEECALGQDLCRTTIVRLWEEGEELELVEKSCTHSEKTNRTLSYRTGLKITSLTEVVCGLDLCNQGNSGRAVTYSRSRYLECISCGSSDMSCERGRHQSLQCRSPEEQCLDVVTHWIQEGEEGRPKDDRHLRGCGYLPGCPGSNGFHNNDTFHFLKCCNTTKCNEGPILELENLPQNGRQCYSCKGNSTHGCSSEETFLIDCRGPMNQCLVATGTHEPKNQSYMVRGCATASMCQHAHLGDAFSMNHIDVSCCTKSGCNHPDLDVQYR

Row | Binder | Kd | koff | kon
1 | B1 | 1.31 nM | 0.000173 s⁻¹ | 132000 M⁻¹ s⁻¹
2 | B2 | 1.49 nM | 0.000101 s⁻¹ | 67600 M⁻¹ s⁻¹
3 | B3 | 22.3 nM | 0.00139 s⁻¹ | 62700 M⁻¹ s⁻¹

biological target: T1, UPAR-His recombinant protein; assay: phage ELISA, plate coated with UPAR-His, HRP-anti-M13

Row | Binder | S/N ratio
4 | B4 | > 5
5 | B5 | > 5
6 | B6 | > 5
7 | B7 | > 5
8 | B8 | > 5
9 | B9 | > 5
10 | B10 | > 5
11 | B11 | > 5
12 | B12 | > 5
13 | B13 | > 5
14 | B14 | > 5
15 | B15 | > 5
16 | B16 | > 5
17 | B17 | > 5
18 | B18 | > 5
